# Source: IntAct's records for PubMed 31515488
# B1: Progranulin (Homo sapiens), P28799 (parent)
# chain: MWTLVSWVALTAGLVAGTRCPDGQFCPVACCLDPGGASYSCCRPLLDKWPTTLSRHLGGPCQVDAHCSAGHSCIFTVSGTSSCCPFPEAVACGDGHHCCPRGFHCSADGRSCFQRSGNNSVGAIQCPDSQFECPDFSTCCVMVDGSWGCCPMPQASCCEDRVHCCPHGAFCDLVHTRCITPTGTHPLAKKLPAQRTNRAVALSSSVMCPDARSRCPDGSTCCELPSGKYGCCPMPNATCCSDHLHCCPQDTVCDLIQSKCLSKENATTDLLTKLPAHTVGDVKCDMEVSCPDGYTCCRLQSGAWGCCPFTQAVCCEDHIHCCPAGFTCDTQKGTCEQGPHQVPWMEKAPAHLSLPDPQALKRDVPCDNVSSCPSSDTCCQLTSGEWGCCPIPEAVCCSDHQHCCPQGYTCVAEGQCQRGSEIVAGLEKMPARRASLSHPRDIGCDQHTSCPVGQTCCPSLGGSWACCQLPHAVCCEDRQHCCPAGYTCNVKARSCEKEVVSAQPATFLARSPHVGVKDVECGEGHFCHDNQTCCRDNRQGWACCPYRQGVCCADRRHCCPAGFRCAARGTKCLRREAPRWDAPLRDPALRQLL
# B2: Zinc finger protein RFP (Homo sapiens), P14373 (parent)
# chain: MASGSVAECLQQETTCPVCLQYFAEPMMLDCGHNICCACLARCWGTAETNVSCPQCRETFPQRHMRPNRHLANVTQLVKQLRTERPSGPGGEMGVCEKHREPLKLYCEEDQMPICVVCDRSREHRGHSVLPLEEAVEGFKEQIQNQLDHLKRVKDLKKRRRAQGEQARAELLSLTQMEREKIVWEFEQLYHSLKEHEYRLLARLEELDLAIYNSINGAITQFSCNISHLSSLIAQLEEKQQQPTRELLQDIGDTLSRAERIRIPEPWITPPDLQEKIHIFAQKCLFLTESLKQFTEKMQSDMEKIQELREAQLYSVDVTLDPDTAYPSLILSDNLRQVRYSYLQQDLPDNPERFNLFPCVLGSPCFIAGRHYWEVEVGDKAKWTIGVCEDSVCRKGGVTSAPQNGFWAVSLWYGKEYWALTSPMTALPLRTPLQRVGIFLDYDAGEVSFYNVTERCHTFTFSHATFCGPVRPYFSLSYSGGKSAAPLIICPMSGIDGFSGHVGNHGHSMETSP
# B3: Peroxisomal bifunctional enzyme (Homo sapiens), Q08426 (parent)
# chain: MAEYTRLHNALALIRLRNPPVNAISTTLLRDIKEGLQKAVIDHTIKAIVICGAEGKFSAGADIRGFSAPRTFGLTLGHVVDEIQRNEKPVVAAIQGMAFGGGLELALGCHYRIAHAEAQVGLPEVTLGLLPGARGTQLLPRLTGVPAALDLITSGRRILADEALKLGILDKVVNSDPVEEAIRFAQRVSDQPLESRRLCNKPIQSLPNMDSIFSEALLKMRRQHPGCLAQEACVRAVQAAVQYPYEVGIKKEEELFLYLLQSGQARALQYAFFAERKANKWSTPSGASWKTASARPVSSVGVVGLGTMGRGIVISFARARIPVIAVDSDKNQLATANKMITSVLEKEASKMQQSGHPWSGPKPRLTSSVKELGGVDLVIEAVFEEMSLKKQVFAELSAVCKPEAFLCTNTSALDVDEIASSTDRPHLVIGTHFFSPAHVMKLLEVIPSQYSSPTTIATVMNLSKKIKKIGVVVGNCFGFVGNRMLNPYYNQAYFLLEEGSKPEEVDQVLEEFGFKMGPFRVSDLAGLDVGWKSRKGQGLTGPTLLPGTPARKRGNRRYCPIPDVLCELGRFGQKTGKGWYQYDKPLGRIHKPDPWLSKFLSRYRKTHHIEPRTISQDEILERCLYSLINEAFRILGEGIAASPEHIDVVYLHGYGWPRHKGGPMFYASTVGLPTVLEKLQKYYRQNPDIPQLEPSDYLKKLASQGNPPLKEWQSLAGSPSSKL
# partner: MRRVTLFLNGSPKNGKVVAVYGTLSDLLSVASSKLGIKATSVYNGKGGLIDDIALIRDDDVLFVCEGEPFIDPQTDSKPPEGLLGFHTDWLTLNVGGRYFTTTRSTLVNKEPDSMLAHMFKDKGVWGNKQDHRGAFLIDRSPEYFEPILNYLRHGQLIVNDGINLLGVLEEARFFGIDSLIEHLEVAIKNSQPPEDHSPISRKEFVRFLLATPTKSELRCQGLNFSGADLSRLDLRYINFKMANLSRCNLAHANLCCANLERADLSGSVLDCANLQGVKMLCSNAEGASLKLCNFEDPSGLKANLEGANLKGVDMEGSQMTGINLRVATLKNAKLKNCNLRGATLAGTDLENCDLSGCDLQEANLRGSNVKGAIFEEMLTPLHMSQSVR
# B4: Homeobox protein PKNOX1 (Homo sapiens), P55347 (parent)
# chain: MMATQTLSIDSYQDGQQMQVVTELKTEQDPNCSEPDAEGVSPPPVESQTPMDVDKQAIYRHPLFPLLALLFEKCEQSTQGSEGTTSASFDVDIENFVRKQEKEGKPFFCEDPETDNLMVKAIQVLRIHLLELEKVNELCKDFCSRYIACLKTKMNSETLLSGEPGSPYSPVQSQQIQSAITGTISPQGIVVPASALQQGNVAMATVAGGTVYQPVTVVTPQGQVVTQTLSPGTIRIQNSQLQLQLNQDLSILHQDDGSSKNKRGVLPKHATNVMRSWLFQHIGHPYPTEDEKKQIAAQTNLTLLQVNNWFINARRRILQPMLDSSCSETPKTKKKTAQNRPVQRFWPDSIASGVAQPPPSELTMSEGAVVTITTPVNMNVDSLQSLSSDGATLAVQQVMMAGQSEDESVDSTEEDAGALAPAHISGLVLENSDSLQ
# B5: Seipin (Homo sapiens), Q96G97-4 (parent)
# chain: MSTEKVDQKEEAGEKEVCGDQIKGPDKEEEPPAAASHGQGWRPGGRAARNARPEPGARHPALPAMVNDPPVPALLWAQEVGQVLAGRARRLLLQFGVLFCTILLLLWVSVFLYGSFYYSYMPTVSHLSPVHFYYRTDCDSSTTSLCSFPVANVSLTKGGRDRVLMYGQPYRVTLELELPESPVNQDLGMFLVTISCYTRGGRIISTSSRSVMLHYRSDLLQMLDTLVFSSLLLFGFAEQKQLLEVELYADYRENSYVPTTGAIIEIHSKRIQLYGAYLRIHAHFTGLRYLLYNFPMTCAFIGVASNFTFLSVIVLFSYMQWVWGGIWPRHRFSLQVNIRKRDNSRKEVQRRISAHQPGPEGQEESTPQSDVTEDGESPEDPSGTEGQLSEEEKPDQQPLSGEEELEPEASDGSGSWEDAALLTEANLPAPAPASASAPVLETLGSSEPAGGALRQRPTCSSS
# partner: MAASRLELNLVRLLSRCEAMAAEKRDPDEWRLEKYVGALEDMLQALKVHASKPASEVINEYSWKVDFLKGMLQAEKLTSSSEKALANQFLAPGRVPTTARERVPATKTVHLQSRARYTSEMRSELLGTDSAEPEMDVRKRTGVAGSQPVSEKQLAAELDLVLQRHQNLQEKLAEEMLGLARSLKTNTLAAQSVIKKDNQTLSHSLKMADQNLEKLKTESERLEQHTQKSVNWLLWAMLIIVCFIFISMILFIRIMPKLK
# B6: TBC1 domain family member 7 (Homo sapiens), Q9P0N9 (parent)
# chain: MTEDSQRNFRSVYYEKVGFRGVEEKKSLEILLKDDRLDTEKLCTFSQRFPLPSMYRALVWKVLLGILPPHHESHAKVMMYRKEQYLDVLHALKVVRFVSDATPQAEVYLRMYQLESGKLPRSPSFPLEPDDEVFLAIAKAMEEMVEDSVDCYWITRRFVNQLNTKYRDSLPQLPKAFEQYLNLEDGRLLTHLRMCSAAPKLPYDLWFKRCFAGCLPESSLQRVWDKVVSGSCKILVFVAVEILLTFKIKVMALNSAEKITKFLENIPQDSSDAIVSKAIDLWHKHCGTPVHSS
# B7: Glutathione S-transferase A2 (Homo sapiens), P09210 (parent)
# chain: MAEKPKLHYSNIRGRMESIRWLLAAAGVEFEEKFIKSAEDLDKLRNDGYLMFQQVPMVEIDGMKLVQTRAILNYIASKYNLYGKDIKEKALIDMYIEGIADLGEMILLLPFSQPEEQDAKLALIQEKTKNRYFPAFEKVLKSHGQDYLVGNKLSRADIHLVELLYYVEELDSSLISSFPLLKALKTRISNLPTVKKFLQPGSPRKPPMDEKSLEESRKIFRF
# partner: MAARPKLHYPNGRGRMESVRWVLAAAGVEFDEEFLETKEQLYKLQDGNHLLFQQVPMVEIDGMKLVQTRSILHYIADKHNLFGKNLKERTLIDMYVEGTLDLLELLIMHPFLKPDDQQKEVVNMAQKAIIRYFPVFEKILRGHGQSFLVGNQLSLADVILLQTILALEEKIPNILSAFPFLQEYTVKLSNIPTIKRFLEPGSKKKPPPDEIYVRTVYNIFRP
# B8: Protein FAM9B (Homo sapiens), Q8IZU0 (parent)
# chain: MAAWGKKHAGKDPVRDECEERNRFTETREEDVTDEHGEREPFAETDEHTGANTKKPEDTAEDLTAKRKRMKMDKTCSKTKNKSKHALRKKQLKRQKRDYIHSLKLLNVLEEYITDEQKEEEEEEGEEEELIRIFQEQQKKWQQYRSVRRERLKEMKLLRDQFVKALEDFEDLCDRVFSDEDSELDN
# partner: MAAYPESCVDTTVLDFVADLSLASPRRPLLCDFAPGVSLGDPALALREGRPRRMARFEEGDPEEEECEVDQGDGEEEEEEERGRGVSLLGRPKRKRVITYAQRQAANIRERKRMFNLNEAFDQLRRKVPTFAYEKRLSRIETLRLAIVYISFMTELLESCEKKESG
# B9: Keratin, type II cytoskeletal 79 (Homo sapiens), Q5XKE5 (parent)
# chain: MRSSVSRQTYSTKGGFSSNSASGGSGSQARTSFSSVTVSRSSGSGGGAHCGPGTGGFGSRSLYNLGGHKSISVSVAGGALLGRALGGFGFGSRAFMGQGAGRQTFGPACPPGGIQEVTVNQSLLTPLHVEIDPEIQRVRTQEREQIKTLNNKFASFIDKVRFLEQQNKVLETKWALLQEQGQNLGVTRNNLEPLFEAYLGSMRSTLDRLQSERGRLDSELRNVQDLVEDFKNKYEDEINKHTAAENEFVVLKKDVDAAYMGRMDLHGKVGTLTQEIDFLQQLYEMELSQVQTHVSNTNVVLSMDNNRNLDLDSIIAEVKAQYELIAQRSRAEAEAWYQTKYEELQVTAGKHGDNLRDTKNEIAELTRTIQRLQGEADAAKKQCQQLQTAIAEAEQRGELALKDAQKKLGDLDVALHQAKEDLTRLLRDYQELMNVKLALDVEIATYRKLLESEESRMSGECPSAVSISVTGNSTTVCGGGAASFGGGISLGGSGGATKGGFSTNVGYSTVKGGPVSAGTSILRKTTTVKTSSQRY
# partner: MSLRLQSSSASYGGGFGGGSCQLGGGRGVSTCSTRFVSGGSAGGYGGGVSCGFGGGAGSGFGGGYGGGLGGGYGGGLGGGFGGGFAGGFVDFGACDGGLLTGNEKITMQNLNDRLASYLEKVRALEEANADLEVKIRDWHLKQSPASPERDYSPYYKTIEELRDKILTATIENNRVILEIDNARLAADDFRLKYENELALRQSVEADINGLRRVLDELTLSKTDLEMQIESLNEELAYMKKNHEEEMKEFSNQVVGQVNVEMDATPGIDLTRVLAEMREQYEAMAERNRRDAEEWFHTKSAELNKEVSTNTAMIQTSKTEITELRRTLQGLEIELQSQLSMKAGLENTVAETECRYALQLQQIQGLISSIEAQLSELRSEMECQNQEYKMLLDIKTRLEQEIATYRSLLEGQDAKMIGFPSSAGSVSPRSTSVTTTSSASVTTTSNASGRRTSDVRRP
# Variants of: B1
# Conditions: with hxa1_human HOXA1, P49639
# Sequence of hxa1_human HOXA1, P49639 (P49639 whole entry): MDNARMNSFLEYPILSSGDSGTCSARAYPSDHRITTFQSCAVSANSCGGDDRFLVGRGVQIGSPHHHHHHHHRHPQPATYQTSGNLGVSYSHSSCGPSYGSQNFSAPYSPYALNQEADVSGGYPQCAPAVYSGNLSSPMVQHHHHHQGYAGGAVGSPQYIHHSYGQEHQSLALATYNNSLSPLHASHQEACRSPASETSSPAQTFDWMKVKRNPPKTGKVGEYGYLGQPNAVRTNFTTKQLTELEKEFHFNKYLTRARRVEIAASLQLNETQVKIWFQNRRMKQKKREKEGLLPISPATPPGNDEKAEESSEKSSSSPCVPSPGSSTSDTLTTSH
row,effect of a mutation on the interaction,Variant
1,with no effect,R433W
2,with no effect,G515A

# Variants of: B1
# Conditions: with glrx3_human GLRX3, O76003
# Sequence of glrx3_human GLRX3, O76003 (O76003 whole entry): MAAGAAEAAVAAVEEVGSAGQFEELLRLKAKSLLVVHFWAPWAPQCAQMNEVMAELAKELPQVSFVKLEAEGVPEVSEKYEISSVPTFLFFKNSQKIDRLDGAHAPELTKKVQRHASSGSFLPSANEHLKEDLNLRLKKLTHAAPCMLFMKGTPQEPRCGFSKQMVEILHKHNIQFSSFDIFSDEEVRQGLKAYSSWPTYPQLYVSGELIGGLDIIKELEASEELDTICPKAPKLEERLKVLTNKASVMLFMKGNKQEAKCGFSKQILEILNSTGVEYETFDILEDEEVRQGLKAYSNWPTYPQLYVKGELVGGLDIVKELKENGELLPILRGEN
row,effect of a mutation on the interaction,Variant
1,with no effect,R433W
2,with no effect,G515A

# Variants of: B2
# Conditions: with if4e_human EIF4E
row,effect of a mutation on the interaction,Variant
1,with no effect,N355S

# Variants of: B2
# Conditions: with fhl3_human FHL3, Q13643
# Sequence of fhl3_human FHL3, Q13643 (Q13643 whole entry): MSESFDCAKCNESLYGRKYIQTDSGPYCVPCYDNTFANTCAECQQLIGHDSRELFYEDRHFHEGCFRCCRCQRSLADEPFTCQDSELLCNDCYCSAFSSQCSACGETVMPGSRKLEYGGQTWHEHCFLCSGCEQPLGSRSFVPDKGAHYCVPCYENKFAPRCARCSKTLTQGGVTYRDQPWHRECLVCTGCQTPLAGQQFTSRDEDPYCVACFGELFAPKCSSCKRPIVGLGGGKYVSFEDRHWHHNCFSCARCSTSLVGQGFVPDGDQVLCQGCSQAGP
row,effect of a mutation on the interaction,Variant
1,disrupting interaction strength,N355S

# Variants of: B2
# Conditions: with bmp7_human BMP7, P18075
# Sequence of bmp7_human BMP7, P18075 (P18075 whole entry): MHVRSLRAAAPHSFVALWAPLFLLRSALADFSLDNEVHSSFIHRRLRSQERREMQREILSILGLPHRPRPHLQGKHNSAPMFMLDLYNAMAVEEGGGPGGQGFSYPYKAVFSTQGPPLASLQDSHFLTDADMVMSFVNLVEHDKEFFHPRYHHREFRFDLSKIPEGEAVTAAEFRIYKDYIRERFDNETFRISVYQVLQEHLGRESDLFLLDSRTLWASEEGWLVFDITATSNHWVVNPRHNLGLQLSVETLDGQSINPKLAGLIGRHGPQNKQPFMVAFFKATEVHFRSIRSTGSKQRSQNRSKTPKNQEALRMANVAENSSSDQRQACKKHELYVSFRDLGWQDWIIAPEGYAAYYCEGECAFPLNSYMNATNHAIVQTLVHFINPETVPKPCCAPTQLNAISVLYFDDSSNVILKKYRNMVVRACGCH
row,effect of a mutation on the interaction,Variant
1,with no effect,N355S

# Variants of: B2
# Conditions: with ercc3_human ERCC3, P19447
# Sequence of ercc3_human ERCC3, P19447 (P19447 whole entry): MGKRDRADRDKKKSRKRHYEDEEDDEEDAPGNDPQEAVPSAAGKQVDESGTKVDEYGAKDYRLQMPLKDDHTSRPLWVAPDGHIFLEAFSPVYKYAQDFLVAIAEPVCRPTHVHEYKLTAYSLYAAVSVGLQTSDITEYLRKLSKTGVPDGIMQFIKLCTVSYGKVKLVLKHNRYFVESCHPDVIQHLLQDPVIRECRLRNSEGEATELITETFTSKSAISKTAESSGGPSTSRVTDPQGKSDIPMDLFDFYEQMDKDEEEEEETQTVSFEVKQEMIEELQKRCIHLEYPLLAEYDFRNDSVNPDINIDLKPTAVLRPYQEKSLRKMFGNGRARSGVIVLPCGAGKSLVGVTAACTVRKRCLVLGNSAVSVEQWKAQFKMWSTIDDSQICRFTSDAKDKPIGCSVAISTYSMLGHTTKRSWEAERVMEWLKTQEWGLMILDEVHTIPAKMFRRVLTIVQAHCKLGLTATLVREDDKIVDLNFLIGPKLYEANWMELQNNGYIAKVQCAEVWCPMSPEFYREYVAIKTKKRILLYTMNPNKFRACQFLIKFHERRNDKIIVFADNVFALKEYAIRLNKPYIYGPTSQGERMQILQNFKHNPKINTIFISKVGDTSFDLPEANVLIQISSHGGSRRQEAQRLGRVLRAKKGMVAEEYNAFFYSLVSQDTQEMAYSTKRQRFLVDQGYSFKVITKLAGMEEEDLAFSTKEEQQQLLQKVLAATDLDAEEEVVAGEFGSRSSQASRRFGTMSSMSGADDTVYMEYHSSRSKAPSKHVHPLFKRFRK
row,effect of a mutation on the interaction,Variant
1,with no effect,N355S

# Variants of: B3
# Conditions: with kctd9_human KCTD9, Q7L273
row,effect of a mutation on the interaction,Variant
1,disrupting interaction strength,L715S
2,disrupting interaction strength,I646T
3,with no effect,S703F
4,disrupting interaction strength,R483Q

# Variants of: B4
# Conditions: with vp37c_human VPS37C
row,effect of a mutation on the interaction,Variant
1,with no effect,E103D
2,with no effect,V265I

# Variants of: B4
# Conditions: with vp37c_human VPS37C
# Remark: another data set of the same source
row,effect of a mutation on the interaction,Variant
1,with no effect,V265I

# Variants of: B5
# Conditions: with use1_human USE1, Q9NZ43
row,effect of a mutation on the interaction,Variant
1,with no effect,D20E

# Variants of: B6
# Conditions: with hook1_human HOOK1, Q9UJC3
# Sequence of hook1_human HOOK1, Q9UJC3 (Q9UJC3 whole entry): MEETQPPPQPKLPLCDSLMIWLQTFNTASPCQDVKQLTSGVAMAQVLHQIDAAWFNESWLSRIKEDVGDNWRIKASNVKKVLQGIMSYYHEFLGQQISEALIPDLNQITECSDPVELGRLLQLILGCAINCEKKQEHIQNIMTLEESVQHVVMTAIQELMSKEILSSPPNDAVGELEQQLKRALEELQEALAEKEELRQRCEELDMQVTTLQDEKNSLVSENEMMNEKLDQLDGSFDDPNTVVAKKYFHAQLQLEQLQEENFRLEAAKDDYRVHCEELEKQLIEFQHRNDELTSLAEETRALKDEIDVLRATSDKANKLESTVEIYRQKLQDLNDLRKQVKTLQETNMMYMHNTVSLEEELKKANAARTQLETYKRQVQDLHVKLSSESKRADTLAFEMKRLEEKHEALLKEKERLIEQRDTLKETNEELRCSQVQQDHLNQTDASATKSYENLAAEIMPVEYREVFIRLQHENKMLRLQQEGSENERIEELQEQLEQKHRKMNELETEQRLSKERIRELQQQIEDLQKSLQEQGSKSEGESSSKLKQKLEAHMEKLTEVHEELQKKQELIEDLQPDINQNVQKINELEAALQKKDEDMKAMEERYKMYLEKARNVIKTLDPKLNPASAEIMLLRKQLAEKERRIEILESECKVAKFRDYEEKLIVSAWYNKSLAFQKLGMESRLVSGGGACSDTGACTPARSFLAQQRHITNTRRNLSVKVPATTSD
row,effect of a mutation on the interaction,Variant
1,disrupting interaction strength,L67W

# Variants of: B6
# Conditions: with KRT19, P08727
# Sequence of KRT19, P08727 (P08727 whole entry): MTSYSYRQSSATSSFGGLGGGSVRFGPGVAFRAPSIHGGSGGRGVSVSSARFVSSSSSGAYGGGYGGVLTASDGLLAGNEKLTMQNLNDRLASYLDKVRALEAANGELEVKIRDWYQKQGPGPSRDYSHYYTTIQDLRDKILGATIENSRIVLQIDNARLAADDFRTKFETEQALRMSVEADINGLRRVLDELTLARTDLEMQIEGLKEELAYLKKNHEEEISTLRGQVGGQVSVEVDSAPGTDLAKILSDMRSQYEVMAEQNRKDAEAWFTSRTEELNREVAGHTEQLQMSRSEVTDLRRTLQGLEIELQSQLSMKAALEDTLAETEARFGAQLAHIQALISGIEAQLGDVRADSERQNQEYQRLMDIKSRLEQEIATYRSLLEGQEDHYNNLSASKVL
row,effect of a mutation on the interaction,Variant
1,disrupting interaction strength,L67W

# Variants of: B7
# Conditions: with gsta4_human GSTA4, O15217
row,effect of a mutation on the interaction,Variant
1,with no effect,E210A

# Variants of: B8
# Conditions: with fer3l_human FERD3L
row,effect of a mutation on the interaction,Variant
1,with no effect,R23H

# Variants of: B9
# Conditions: with KRT13, P13646
row,effect of a mutation on the interaction,Variant
1,with no effect,R213W
2,with no effect,R30C
3,with no effect,D217Y
4,with no effect,R161Q
5,with no effect,G86E
